Data on 5 substances can be found in paper PMC8772750.

Experiment [1] concerns the target Variegin (Amblyomma variegatum) (UniProt P85800). The note with it: cited from earlier work.
For experiment [2] the target is unchanged. Conditions: cited from earlier work. This is another data set of the same source.
Experiment [3] has as its target human α-thrombin (human) (UniProt P00734). Put plainly: enzyme inhibition kinetics (thrombin amidolytic assay with S-2238); tight-binding assay: inhibitor incubated with 500 pM thrombin for 30 min at 37 °C, then S-2238 added to 50-500 µM; 50 mM Tris-HCl pH 8.4, 150 mM NaCl, 0.1% PEG 6000; Morrison equation for tight-binding competitive inhibitors, apparent Ki' plotted against substrate concentration to obtain Ki.

The target is the same in experiment [4].

Read-outs that look alike come from different tables or passages of the source.

As to Thrombin (from UniProt P00734), the Ki in experiment [1] was 14 nM; in experiment [2], 0.0104 nM.
“recombinant anophelin from Anopheles albimanus (natural protein)”: in the experiment with human α-thrombin (human) [3], the Ki came out at 0.0994 nM. In the experiment with human α-thrombin (human) [4], this substance returned an IC50 of inhibition of thrombin amidolytic activity (500 pM thrombin, 100 µM S-2238), preincubation 0 min of 6.35 nM and an IC50 of inhibition of thrombin amidolytic activity (500 pM thrombin, 100 µM S-2238), preincubation 30 min of 6.78 nM.
For “recombinant haemadin from the leech Haemadipsa sylvestris (natural protein)”, in that order: 0.000237 nM, 22 pM and 33.1 pM.
For “recombinant hirudin-1 from Hirudo medicinalis (desirudin) (from UniProt P01050 1-65) (natural protein)”, in that order: 0.000217 nM, 21.5 pM and 28 pM.
As for “recombinant variegin from the tick Amblyomma variegatum (from UniProt P85800 1-32) (peptide)”, the Ki with human α-thrombin (human) [3] stood at 0.372 nM. Moreover, in the experiment with human α-thrombin (human) [4], the IC50 of inhibition of thrombin amidolytic activity (500 pM thrombin, 100 µM S-2238), preincubation 0 min is 14.6 nM and the IC50 of inhibition of thrombin amidolytic activity (500 pM thrombin, 100 µM S-2238), preincubation 30 min came out at 18.4 nM.
